First the molecules themselves.
B1: HDV Ribozyme (parent)
chain: GGCCGGCAUGGUCCCAGCCUCCUCGCUGGCGCCGGCUGGGCAACAUUCCGAGGGGACCGUCCCCUCGGUAAUGGCGAAUGGGACCCA

This data set covers variants of B1. Kind of data set: self-cleavage, relative activity (ratio to wild type); higher = more cleavage; co-transcriptional.
In the case of GGCCGGCAUGGUCCCAGCCUCCUCGCUGGCGCGGGCUGGGCAACAUUCCGAGGGGACCGUGCCCUCGGUAAUGGCGAAUGGGACCCA [C33G C61G], the self-cleavage amounted to 0.19.

Consider GGCCGGCAUGGUCCCAGCCUCCUCGCUGGCGCGGGCUGGGCAACAUUCCGAGGGGACCGUACCCUCGGUAAUGGCGAAUGGGACCCA [C33G C61A], for which the self-cleavage was 0.193.

With GGCCGGCAUGGUCCCAGCCUCCUCGCUGGCGCGGGCUGGGCAACAUUCCGAGGGGACCGUUCCCUCGGUAAUGGCGAAUGGGACCCA [C33G C61U], the self-cleavage is 0.212.

With GGCCGGCAUGGUCCCAGCCUCCUCGCUGGCGCGGGCUGGGCAACAUUCCGAGGUGACCGUCCCCUCGGUAAUGGCGAAUGGGACCCA [C33G G54U], the self-cleavage is 0.0426.

Regarding GGCCGGCAUGGUCCCAGCCUCCUCGCUGGCGCGGGGUGGGCAACAUUCCGAGGGGACCGUCCCCUCGGUAAUGGCGAAUGGGACCCA [C33G C36G], the self-cleavage is 0.128.

On to GGCCGGCAUGGUCCCAGCCUCCUCGCUGGCGCGGGAUGGGCAACAUUCCGAGGGGACCGUCCCCUCGGUAAUGGCGAAUGGGACCCA [C33G C36A], for which the self-cleavage is 0.107.

As for GGCCGGCAUGGUCCCAGCCUCCUCGCUGGCGCGGGCUGGGCAAGAUUCCGAGGGGACCGUCCCCUCGGUAAUGGCGAAUGGGACCCA [C33G C44G], the self-cleavage came out at 0.101.

Turning to GGCCGGCAUGGUCCCAGCCUCCUCGCUGGCGCGGGCUGGGCAACAUUCCGAGGGGACCGUCCCAUCGGUAAUGGCGAAUGGGACCCA [C33G C64A], the self-cleavage was 0.213.

For GGCCGGCAUGGUCCCAGCCUCCUCGCUGGCGCGGGCUGGGCAACAUUCCGAGAGGACCGUCCCCUCGGUAAUGGCGAAUGGGACCCA [C33G G53A], the self-cleavage is 0.0449.

As to GGCCGGCAUGGUCCCAGCCUCCUCGCUGGCGCGGGCUGGGCAACAUUCCGAGUGGACCGUCCCCUCGGUAAUGGCGAAUGGGACCCA [C33G G53U], the self-cleavage was determined as 0.185.

Turning to GGCCGGCAUGGUCCCAGCCUCCUCGCUGGCGCGGGCUGGGCAACAUUCCGAGGGGACCGUCCCCUCGGUAAUGGCGAAUGGGAUCCA [C33G C84U], the self-cleavage was determined as 0.0386.

For the variant GGCCGGCAUGGUCCCAGCCUCCUCGCUGGCGCGGGCUGGGCAACAUUCCGAGGGGACCGUCCCCUCGGUAAUGGCGAAUGGGAGCCA [C33G C84G], the self-cleavage was 0.0489.

With GGCCGGCAUGGUCCCAGCCUCCUCGCUGGCGCGGGCCGGGCAACAUUCCGAGGGGACCGUCCCCUCGGUAAUGGCGAAUGGGACCCA [C33G U37C], the self-cleavage is 0.122.

For GGCCGGCAUGGUCCCAGCCUCCUCGCUGGCGCGGGCAGGGCAACAUUCCGAGGGGACCGUCCCCUCGGUAAUGGCGAAUGGGACCCA [C33G U37A], the self-cleavage came out at 0.225.

For GGCCGGCAUGGUCCCAGCCUCCUCGCUGGCGCGGGCUGGUCAACAUUCCGAGGGGACCGUCCCCUCGGUAAUGGCGAAUGGGACCCA [C33G G40U], the self-cleavage amounted to 0.233.

Regarding GGCCGGCAUGGUCCCAGCCUCCUCGCUGGCGCGGGCUGGACAACAUUCCGAGGGGACCGUCCCCUCGGUAAUGGCGAAUGGGACCCA [C33G G40A], the self-cleavage was 0.243.

As for GGCCGGCAUGGUCCCAGCCUCCUCGCUGGCGCGGGCUGGGCAACAUUUCGAGGGGACCGUCCCCUCGGUAAUGGCGAAUGGGACCCA [C33G C48U], the self-cleavage was 0.13.

For the variant GGCCGGCAUGGUCCCAGCCUCCUCGCUGGCGCGGGCUCGGCAACAUUCCGAGGGGACCGUCCCCUCGGUAAUGGCGAAUGGGACCCA [C33G G38C], the self-cleavage came out at 0.

With GGCCGGCAUGGUCCCAGCCUCCUCGCUGGCGCGGGCUGGGCAACAUUCGGAGGGGACCGUCCCCUCGGUAAUGGCGAAUGGGACCCA [C33G C49G], the self-cleavage amounted to 0.0978.

Turning to GGCCGGCAUGGUCCCAGCCUCCUCGCUGGCGCGGGCUGGGCAACAUUCUGAGGGGACCGUCCCCUCGGUAAUGGCGAAUGGGACCCA [C33G C49U], the self-cleavage was determined as 0.0923.

Regarding GGCCGGCAUGGUCCCAGCCUCCUCGCUGGCGCGGCCUGGGCAACAUUCCGAGGGGACCGUCCCCUCGGUAAUGGCGAAUGGGACCCA [C33G G35C], the self-cleavage was determined as 0.0396.

On to GGCCGGCAUGGUCCCAGCCUCCUCGCUGGCGCGGUCUGGGCAACAUUCCGAGGGGACCGUCCCCUCGGUAAUGGCGAAUGGGACCCA [C33G G35U], for which the self-cleavage came to 0.142.

For the variant GGCCGGCAUGGUCCCAGCCUCCUCGCUGGCGCGGGCUGGGAAACAUUCCGAGGGGACCGUCCCCUCGGUAAUGGCGAAUGGGACCCA [C33G C41A], the self-cleavage was 0.185.

Consider GGCCGGCAUGGUCCCAGCCUCCUCGCUGGCGCGGGCUGGGCAACAUUCCGAGGGGACCGUCCCCUCAGUAAUGGCGAAUGGGACCCA [C33G G67A], for which the self-cleavage came to 0.089.

GGCCGGCAUGGUCCCAGCCUCCUCGCUGGCGCGGGCUGGGCAACAUUCCGAGGGGACCGUCCCCUCCGUAAUGGCGAAUGGGACCCA [C33G G67C]: the self-cleavage came out at 0.0978.

Turning to GGCCGGCAUGGUCCCAGCCUCCUCGCUGGCGCGGGCUGGGCAACAUUCCGAGGGGACCUUCCCCUCGGUAAUGGCGAAUGGGACCCA [C33G G59U], the self-cleavage was 0.111.

Turning to GGCCGGCAUGGUCCCAGCCUCCUCGCUGGCGCGGGCUGGGCAACAUUCCGAGGGGACCAUCCCCUCGGUAAUGGCGAAUGGGACCCA [C33G G59A], the self-cleavage worked out at 0.188.

For GGCCGGCAUGGUCCCAGCCUCCUCGCUGGCGCGGGCUGGGCAACAUUCCGAGGGGACCGUCCCCUCGGUAAUGGCGAAUGGCACCCA [C33G G82C], the self-cleavage was found to be 0.0405.

As for GGCCGGCAUGGUCCCAGCCUCCUCGCUGGCGCGGGCUGGGCAACAUUCCGAGGGAACCGUCCCCUCGGUAAUGGCGAAUGGGACCCA [C33G G55A], the self-cleavage stood at 0.218.

In the case of GGCCGGCAUGGUCCCAGCCUCCUCGCUGGCGCGGGCUGGGCAACAUUCCGAGGGCACCGUCCCCUCGGUAAUGGCGAAUGGGACCCA [C33G G55C], the self-cleavage was 0.158.

Regarding GGCCGGCAUGGUCCCAGCCUCCUCGCUGGCGCGGGCUGGGCAACAUUCCGAGGGGACCGUCCCCUCGGUAAUGGCGAAUCGGACCCA [C33G G80C], the self-cleavage was 0.

GGCCGGCAUGGUCCCAGCCUCCUCGCUGGCGCGGGCUGGGCAACAUUCCGAGGGGACCGUCCGCUCGGUAAUGGCGAAUGGGACCCA [C33G C63G]: the self-cleavage was 0.369.

These data come from the RNAGym collection of RNA variant scans (doi:10.7554/elife.80360).
